What was measured:
Experiment in all cases: biochemical
Format in all cases: biochemical
266 human kinases [1] = molecular target: 266 human kinases (Homo sapiens, UniProt P07949, V804M); details: Ret(V804M)(h); 100 μM
Outline: (§1)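 A filter-capture radiometric assay: phosphorylated cationic substrate binds an anionic membrane and is scintillation-counted, with values referenced to full-activity control.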

266 human kinases [2] = molecular target: 266 human kinases (Homo sapiens, UniProt Q86Z02); details: HIPK1(h); 100 μM
Chain of 266 human kinases (Homo sapiens, UniProt Q86Z02) (Q86Z02 whole entry): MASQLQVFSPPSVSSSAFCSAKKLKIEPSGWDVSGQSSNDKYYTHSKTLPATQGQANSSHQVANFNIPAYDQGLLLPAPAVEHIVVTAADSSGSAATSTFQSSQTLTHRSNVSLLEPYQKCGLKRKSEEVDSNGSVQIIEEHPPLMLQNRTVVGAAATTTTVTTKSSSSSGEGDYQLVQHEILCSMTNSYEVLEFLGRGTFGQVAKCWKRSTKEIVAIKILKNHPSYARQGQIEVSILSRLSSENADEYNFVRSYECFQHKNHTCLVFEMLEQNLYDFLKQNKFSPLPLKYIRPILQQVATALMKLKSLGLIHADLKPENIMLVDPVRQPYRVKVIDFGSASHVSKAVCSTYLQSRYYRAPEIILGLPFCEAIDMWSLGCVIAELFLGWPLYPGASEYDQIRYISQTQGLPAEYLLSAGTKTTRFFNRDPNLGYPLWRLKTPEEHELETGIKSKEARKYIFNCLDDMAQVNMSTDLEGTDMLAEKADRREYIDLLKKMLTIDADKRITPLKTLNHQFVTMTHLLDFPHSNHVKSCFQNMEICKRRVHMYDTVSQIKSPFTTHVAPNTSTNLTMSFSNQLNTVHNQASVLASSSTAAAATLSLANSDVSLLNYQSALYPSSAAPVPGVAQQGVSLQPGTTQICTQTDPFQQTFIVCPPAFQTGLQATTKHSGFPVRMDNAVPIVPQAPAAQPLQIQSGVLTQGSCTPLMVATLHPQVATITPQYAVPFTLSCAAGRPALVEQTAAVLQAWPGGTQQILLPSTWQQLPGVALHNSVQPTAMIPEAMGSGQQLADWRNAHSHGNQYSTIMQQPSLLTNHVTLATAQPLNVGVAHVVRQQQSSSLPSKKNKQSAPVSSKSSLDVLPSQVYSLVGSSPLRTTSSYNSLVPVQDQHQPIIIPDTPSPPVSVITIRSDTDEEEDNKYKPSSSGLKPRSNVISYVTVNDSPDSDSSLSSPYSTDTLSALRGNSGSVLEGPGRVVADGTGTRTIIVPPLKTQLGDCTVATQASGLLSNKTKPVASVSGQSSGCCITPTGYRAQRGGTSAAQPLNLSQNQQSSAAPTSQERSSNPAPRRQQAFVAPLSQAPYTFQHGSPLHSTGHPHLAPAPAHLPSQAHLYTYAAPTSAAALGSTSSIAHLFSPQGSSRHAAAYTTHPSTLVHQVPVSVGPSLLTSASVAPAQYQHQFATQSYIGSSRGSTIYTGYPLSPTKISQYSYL
Outline: as §1

266 human kinases [3] = molecular target: 266 human kinases (Homo sapiens, UniProt Q15418); details: Rsk1(h); 100 μM
Chain of 266 human kinases (Homo sapiens, UniProt Q15418) (Q15418 whole entry): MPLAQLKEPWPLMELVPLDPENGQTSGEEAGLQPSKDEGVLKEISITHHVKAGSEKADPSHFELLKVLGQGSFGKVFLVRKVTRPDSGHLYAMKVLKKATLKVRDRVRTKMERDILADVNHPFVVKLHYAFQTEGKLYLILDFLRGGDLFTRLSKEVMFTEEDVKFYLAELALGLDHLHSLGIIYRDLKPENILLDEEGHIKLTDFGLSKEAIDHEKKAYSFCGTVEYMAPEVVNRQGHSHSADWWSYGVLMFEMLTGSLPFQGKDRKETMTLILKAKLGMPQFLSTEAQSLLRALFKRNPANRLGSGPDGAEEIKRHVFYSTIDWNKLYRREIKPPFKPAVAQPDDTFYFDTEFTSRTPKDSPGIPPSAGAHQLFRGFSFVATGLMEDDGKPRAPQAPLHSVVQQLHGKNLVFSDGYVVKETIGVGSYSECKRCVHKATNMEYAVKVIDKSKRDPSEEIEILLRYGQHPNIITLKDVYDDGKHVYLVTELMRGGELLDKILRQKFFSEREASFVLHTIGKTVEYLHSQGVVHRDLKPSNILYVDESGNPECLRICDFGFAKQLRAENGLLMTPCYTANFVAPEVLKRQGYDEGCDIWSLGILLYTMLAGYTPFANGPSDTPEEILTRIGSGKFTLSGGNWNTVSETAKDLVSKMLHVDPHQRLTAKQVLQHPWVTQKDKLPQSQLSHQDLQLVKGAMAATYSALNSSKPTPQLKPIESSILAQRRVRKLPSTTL
Outline: as §1

266 human kinases [4] = molecular target: T1, 266 human kinases (Homo sapiens, UniProt Q7L7X3); details: TAO1(h); 100 μM
T1 sequence (Q7L7X3 1-1001): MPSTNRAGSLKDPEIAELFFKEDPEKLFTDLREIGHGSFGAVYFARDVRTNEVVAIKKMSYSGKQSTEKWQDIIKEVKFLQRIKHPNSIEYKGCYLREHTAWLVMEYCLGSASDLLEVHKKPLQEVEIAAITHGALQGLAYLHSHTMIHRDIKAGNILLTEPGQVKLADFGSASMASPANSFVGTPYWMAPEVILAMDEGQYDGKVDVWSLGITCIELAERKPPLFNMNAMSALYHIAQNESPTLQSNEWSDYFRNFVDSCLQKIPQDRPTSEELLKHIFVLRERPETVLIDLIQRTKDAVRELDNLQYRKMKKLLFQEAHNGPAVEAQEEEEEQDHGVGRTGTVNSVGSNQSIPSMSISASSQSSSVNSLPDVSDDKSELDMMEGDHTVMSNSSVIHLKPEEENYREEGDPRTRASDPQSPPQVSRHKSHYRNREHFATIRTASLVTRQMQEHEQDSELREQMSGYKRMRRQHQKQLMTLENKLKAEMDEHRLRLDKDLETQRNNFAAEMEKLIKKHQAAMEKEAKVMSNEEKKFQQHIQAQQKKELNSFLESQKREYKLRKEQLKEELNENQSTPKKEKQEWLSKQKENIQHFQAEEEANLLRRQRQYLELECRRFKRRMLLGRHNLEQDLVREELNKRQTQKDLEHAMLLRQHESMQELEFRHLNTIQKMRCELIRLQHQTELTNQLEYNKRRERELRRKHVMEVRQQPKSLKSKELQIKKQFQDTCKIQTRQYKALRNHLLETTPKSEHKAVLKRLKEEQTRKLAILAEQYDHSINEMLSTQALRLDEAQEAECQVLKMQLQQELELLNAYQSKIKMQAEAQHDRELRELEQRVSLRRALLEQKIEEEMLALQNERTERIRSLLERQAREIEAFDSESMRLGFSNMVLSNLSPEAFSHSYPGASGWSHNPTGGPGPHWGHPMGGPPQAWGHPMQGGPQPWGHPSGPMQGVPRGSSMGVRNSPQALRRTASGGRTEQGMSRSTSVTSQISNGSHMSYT
Outline: as §1

266 human kinases [5] = molecular target: T2, 266 human kinases (Homo sapiens, UniProt O00418); details: eEF-2K(h); 100 μM
T2 sequence (O00418 whole entry, looked up): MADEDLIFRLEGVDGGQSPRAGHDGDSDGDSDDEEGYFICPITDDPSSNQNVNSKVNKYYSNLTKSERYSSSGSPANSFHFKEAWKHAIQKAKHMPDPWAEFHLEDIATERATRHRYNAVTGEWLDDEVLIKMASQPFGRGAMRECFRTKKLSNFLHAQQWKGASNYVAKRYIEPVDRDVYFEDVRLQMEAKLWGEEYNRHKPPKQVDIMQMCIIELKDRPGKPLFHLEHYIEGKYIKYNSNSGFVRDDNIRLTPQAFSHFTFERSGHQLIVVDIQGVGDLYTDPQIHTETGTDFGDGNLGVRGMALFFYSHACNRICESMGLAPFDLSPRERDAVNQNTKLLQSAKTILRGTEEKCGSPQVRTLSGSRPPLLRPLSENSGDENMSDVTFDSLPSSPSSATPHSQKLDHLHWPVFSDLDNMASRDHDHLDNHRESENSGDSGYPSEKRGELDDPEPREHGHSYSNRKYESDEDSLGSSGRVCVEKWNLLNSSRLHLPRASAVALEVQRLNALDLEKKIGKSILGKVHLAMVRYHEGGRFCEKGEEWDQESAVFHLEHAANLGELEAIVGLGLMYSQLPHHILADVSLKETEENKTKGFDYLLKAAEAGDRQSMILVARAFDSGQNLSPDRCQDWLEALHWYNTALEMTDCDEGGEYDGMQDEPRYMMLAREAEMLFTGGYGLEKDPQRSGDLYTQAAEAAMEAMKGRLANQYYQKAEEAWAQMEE
Outline: as §1

266 human kinases [6] = molecular target: 266 human kinases (Homo sapiens, UniProt P53667); details: LIMK1(h); 100 μM
Chain of 266 human kinases (Homo sapiens, UniProt P53667) (P53667 whole entry): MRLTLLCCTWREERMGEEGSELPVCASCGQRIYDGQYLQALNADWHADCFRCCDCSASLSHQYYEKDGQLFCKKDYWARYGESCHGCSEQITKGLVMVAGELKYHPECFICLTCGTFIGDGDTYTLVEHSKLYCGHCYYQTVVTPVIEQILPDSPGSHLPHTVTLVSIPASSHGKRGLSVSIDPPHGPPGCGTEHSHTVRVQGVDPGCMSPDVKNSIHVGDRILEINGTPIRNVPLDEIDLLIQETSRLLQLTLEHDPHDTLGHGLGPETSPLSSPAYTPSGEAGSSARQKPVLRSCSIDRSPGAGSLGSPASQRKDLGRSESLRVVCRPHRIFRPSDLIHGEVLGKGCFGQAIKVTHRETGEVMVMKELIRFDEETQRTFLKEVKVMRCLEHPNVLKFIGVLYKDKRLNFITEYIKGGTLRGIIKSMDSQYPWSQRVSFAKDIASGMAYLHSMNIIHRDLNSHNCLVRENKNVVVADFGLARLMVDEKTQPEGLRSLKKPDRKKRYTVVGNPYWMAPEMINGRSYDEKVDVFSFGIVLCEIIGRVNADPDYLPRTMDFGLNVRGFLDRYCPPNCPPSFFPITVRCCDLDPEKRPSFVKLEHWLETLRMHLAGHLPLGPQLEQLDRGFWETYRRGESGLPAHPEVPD
Outline: as §1

266 human kinases [7] = molecular target: 266 human kinases (Homo sapiens, UniProt P34947); details: GRK5(h); 100 μM
Chain of 266 human kinases (Homo sapiens, UniProt P34947) (P34947 whole entry): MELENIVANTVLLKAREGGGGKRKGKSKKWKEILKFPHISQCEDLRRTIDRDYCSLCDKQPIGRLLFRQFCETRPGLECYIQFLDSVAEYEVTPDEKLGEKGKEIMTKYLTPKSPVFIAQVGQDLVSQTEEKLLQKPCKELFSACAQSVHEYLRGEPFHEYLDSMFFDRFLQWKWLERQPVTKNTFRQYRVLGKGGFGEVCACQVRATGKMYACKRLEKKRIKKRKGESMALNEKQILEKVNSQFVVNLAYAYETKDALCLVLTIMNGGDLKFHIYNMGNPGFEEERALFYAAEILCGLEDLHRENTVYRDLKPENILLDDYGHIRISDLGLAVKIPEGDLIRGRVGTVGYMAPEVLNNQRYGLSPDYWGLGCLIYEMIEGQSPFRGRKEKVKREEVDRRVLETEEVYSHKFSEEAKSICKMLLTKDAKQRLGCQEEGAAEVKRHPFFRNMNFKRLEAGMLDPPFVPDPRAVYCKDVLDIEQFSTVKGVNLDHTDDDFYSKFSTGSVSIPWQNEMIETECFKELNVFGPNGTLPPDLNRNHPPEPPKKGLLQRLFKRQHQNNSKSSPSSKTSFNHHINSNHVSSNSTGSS
Outline: as §1

266 human kinases [8] = molecular target: 266 human kinases (Homo sapiens, UniProt P19784); details: CK2α2(h); 100 μM
Chain of 266 human kinases (Homo sapiens, UniProt P19784) (P19784 whole entry): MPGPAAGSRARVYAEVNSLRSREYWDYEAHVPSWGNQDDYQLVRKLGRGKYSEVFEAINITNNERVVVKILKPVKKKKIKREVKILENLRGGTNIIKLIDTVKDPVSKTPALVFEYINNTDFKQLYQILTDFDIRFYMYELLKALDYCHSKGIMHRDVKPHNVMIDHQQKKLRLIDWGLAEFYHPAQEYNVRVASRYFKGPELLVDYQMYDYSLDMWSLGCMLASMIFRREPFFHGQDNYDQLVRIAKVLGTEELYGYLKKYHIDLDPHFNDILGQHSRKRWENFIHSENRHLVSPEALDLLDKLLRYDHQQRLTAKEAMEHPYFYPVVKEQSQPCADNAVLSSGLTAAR
Outline: as §1

| Sequence | % activity (266 human kinases [1]) | % activity (266 human kinases [2]) | % activity (266 human kinases [3]) | % activity (266 human kinases [4]) | % activity (266 human kinases [5]) | % activity (266 human kinases [6]) | % activity (266 human kinases [7]) | % activity (266 human kinases [8]) |
| --- | --- | --- | --- | --- | --- | --- | --- | --- |
| HRRIKAWLKKIKALARQLGVAA (mammal) [MMI-0500] | 36% | 47% | 34% | 24% | 43% | 87% |  |  |
| YARAAARQARAKALNRQLGVA (mammal) [MMI-0200] |  |  |  |  |  |  | 135% | 88% |
